# Target: T1, Human TIM-3 Human Fc tagged protein (human, fluorescently labeled with HiLyte Fluor 555 (sites not given))
# T1 construct: Bought construct; also called TIM-3 protein tagged with human Fc; ACROBiosystems catalog no: TM3-H5258
# Assay: capture slide probed with labeled TIM-3-Fc;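 further: IgG from single CD138-enriched plasma cells, isolated from lymphocytes, immobilized on a derivatized glass slide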
row,Binder,binding result
1,"SCT-Fa012 (antibody, V domains shown, murine IgG) VH: EVKLVESEGGLVQPGSSMKLSCTASGFTFSDYYMAWVRQVPEKGLEWVAHINFDGSGTYYLDSLKSRFIISRDNAKNILYLQLSSLKSEDTATYYCARLYDGSHDYWGQGTTLTVSS VL: not shown",binds
2,"SCT-Fa010 (antibody, V domains shown, murine IgG) VH: EVKLVESEGGLVQPGSSMKLSCTASGFTFSDYYMAWVRQVPEKGLEWIANINFDGSGTYYLDSLKSRFIISRDNAKNILYLQMSSLKSEDTATYYCARLYDGSLDYWGQGTTLTVSS VL: not shown",binds
3,"SCT-Fa011 (antibody, V domains shown, murine IgG) VH: EVKLVESEGGLVQPGSSMKLSCTASGFTFSDYYMAWVRQVPEKGLEWVAHINFDGSGTYYLDSLKSRFIISRDNAKNILYLQLSSLKSEDTATYYCARLYDGSHDYWGQGTTLTVSS VL: not shown",binds
4,"SCT-Fa013 (antibody, V domains shown, murine IgG) VH: EVKLVESEGGLVQPGSSMKLSCTASGFTFSDYYMAWVRQVPEKGLEWVAHINFDGSGTYYLDSLKSRFIISRDNAKNILYLQLSSLKSEDTGTYYCARLYDGSHDYWGQGTTLTVSS VL: not shown",binds
5,"SCT-Fa014 (antibody, V domains shown, murine IgG) VH: EVKLVESEGGLVQPGSSMKLSCTASGFTFSDYYMAWVRQVPEKGLEWVAHINFDGSGTYYLDSLKSRFIISRDNAKNILYLQLSSLKSEDTGTYYCARLYDGSHDYWGQGTTLTVSS VL: not shown",binds
6,"SCT-Fa015 (antibody, V domains shown, murine IgG) VH: EVKLVESEGGLVQPGSSMKLSCTASGFTFSDYYMAWVRQVPEKGLEWVAHINFDGSGTYYLDSLKSRFIISRDNEKSILYLQLSSLKSEDTATYYCARLYDGSHDYWGQGTTLTVSS VL: not shown",binds
7,"SCT-Fa016 (antibody, V domains shown, murine IgG) VH: EVKLVESEGGLVQPGSSMKLSCTASGFTFSDYYMAWVRQVPEKGLEWVAHINFDGSGTYYLDSLKSRFIISRDNTKNILYLQLSSLKSEDTATYYCARLYDGSHDYWGQGTTLTVSS VL: not shown",binds
8,"SCT-Fa017 (antibody, V domains shown, murine IgG) VH: EVKLVESEGGLVQPGSSMKLSCTASGFTFSDYYMAWVRQVPEKGLEWVANINFDGSGTYYLDSLKSRFIISRDNAKNILYLQMSSLKSEDTATYYCARLYDGSHDYWGQGTTLTVSS VL: not shown",binds
9,"SCT-Fa019 (antibody, V domains shown, murine IgG) VH: EVKLVESEGGLVQPGSSMKLSCTASGFTFSDYYMSWVRQVPEKGLEWVANINFDGSGTYYLDSLKSRFIISRDNAKNILYLQMSSLRSEDTATYYCARLYDGSHDYWGQGSALTVSS VL: not shown",binds
10,"SCT-Fa107 (antibody, V domains shown, murine IgG) VH: QVQLKQSGAELVRPGTSVKLSCKASGYTLTDYYINWVKQRPGQGLEWIARIYPGNGNTYYNEKFKGKATLTAEKSSSTVNMQVSSLTSEDSAVYFCARGGSSDRIYYYAMDYWGQGTSVTVSS VL: DIQMNQSPSSLSASLGDTITITCHASQNINVWLSWYQQKPGNIPKLLIYKASNLHTGVPSRFSGSGSGTGFTLTISSLQPEDIATYYCQQGQSYPLTFGSGTKLEIK",binds
11,"SCT-Fa093 (antibody, V domains shown, murine IgG) VH: QVHLKQSGAELVRPGTSVKLSCKASGYTLTDYYINWVKQRPGQGLEWIARIYPGNGNTYYNEKFKGKATLTAEKSSSTVNMQVSSLTSEDSAVYFCARGGSSDRIYYYAMDYWGQGTSVTVSS VL: DIQMNQSPSSLSASLGDTITITCHASQNINVWLSWYQQKPGNIPKLLIYKASNLHTGVPSRFSGSGSGTGFTLTISSLQPEDIATYYCQQGQSYPLTFGSGTKLEIK",binds
12,"SCT-Fa097 (antibody, V domains shown, murine IgG) VH: QVQLKQSGAELVRPGTSVKLSCKASGYILTDYYINWVKQRPGQGLEWIARIYPGNGNTYYNEKFKGKATLTAEKSSSTVNMQVSSLTSEDSAVYFCARGGSSDRIYYYAMDHWGQGTSVTVSS VL: DIQMNQSPSSLSASLGDTINITCHASQNINVWLSWYQQKPGNIPKLLIYKASNLHTGVPLRFSGSGSGTGFTLTISSLQPEDIATYYCQQGQSYPLTFGSGTKLEIK",binds
13,"SCT-Fa098 (antibody, V domains shown, murine IgG) VH: QVQLKQSGAELVRPGTSVKLSCKASGYILTDYYINWVKQRPGQGLEWIARIYPGNGNTYYNEKFKGKATLTAEKSSSTVNMQVSSLTSEDSAVYFCARGGSSDRIYYYAMDYWGQGTSVTVSS VL: DIQMNQSPSSLSASLGDTITITCHASQNINVWLSWYQQKPGNIPKLLIYKASNLHTGVPSRFSGSGSGTGFTLAISSLQPEDIATYYCQQGQSYPLTFGSGTKLALK",binds
14,"SCT-Fa099 (antibody, V domains shown, murine IgG) VH: QVQLKQSGAELVRPGTSVKLSCKASGYILTDYYINWVKQRPGQGLEWIARIYPGNGNTYYNEKFKGKATLTAEKSSSTVNMQVSSLTSEDSAVYFCARGGSSDRIYYYAMDYWGQGTSVTVSS VL: DIQMNQSPSSLSASLGDTITITCHASQNINVWLSWYQQKPGNIPKLLIYKASNLHTGVPSRFSGSGSGTGFTLTISSLQPEDIATYYCQQGQSYPLTFGSGTKLEIK",binds
15,"SCT-Fa100 (antibody, V domains shown, murine IgG) VH: QVQLKQSGAELVRPGTSVKLSCKASGYTLIDYYINWVKQRPGQGLEWIARIYPGNGNTYYNEKFKGKATLTAEKSSSTVNMQVSSLTSEDSAVYFCARGGSSDRIYYFAMDYWGQGTSVTVSS VL: DIQMNQSPSSLSASLGDTITITCHASQNINVWLSWYQQKPGNIPKLLIYKASNLHTGVPSRFSGSGSGTGFTLTISSLQPEDIATYYCQQGQSYPLTFGSGTKLEIK",binds
16,"SCT-Fa101 (antibody, V domains shown, murine IgG) VH: QVQLKQSGAELVRPGTSVKLSCKASGYTLIDYYINWVKQRPGQGLEWIARIYPGNGNTYYNEKFKGKATLTAEKSSSTVNMQVSSLTSEDSAVYFCARGGSSDRIYYYAMDYWGQGTSVTVSS VL: DIQMNQSPSSLSASLGDTITITCHASQNINVWLSWYQQKPGNIPKLLIYKASNLHTGVPSRFSGSGSGTGFTLTISSLQPEDIATYYCQQGQSYPLTFGSGTKLEIK",binds
17,"SCT-Fa102 (antibody, V domains shown, murine IgG) VH: QVQLKQSGAELVRPGTSVKLSCKASGYTLNDYYINWVKQRPGQGLEWIARIYPGNNNTYYNEKFKGKATLTAEKSSNTAYMQVSSLTSEDSAVYFCARGGSSVRVYYYAMDYWGQGTSVTVSS VL: DIQMNQSPSSLSASLGDTITITCHASQNINVWLSWYQQKPGNIPKLLIYKASNLHTGVPSRFSGSGSGTGFTLTISSLQPEDIATYYCQQGQSYPLTFGSGTKLEIK",binds
18,"SCT-Fa103 (antibody, V domains shown, murine IgG) VH: QVQLKQSGAELVRPGTSVKLSCKASGYTLTDYYINWVKQRPGQGLEWIARIYPGNGNTLYNAKFEGKATLTAERSSSTAYMQVSSLTSEDSAVYFCARGGSSVRVYYYAMDFWGQGTSVTVSS VL: DIQMNQSPSSLSASLGDTITITCHASQNINVWLSWYQQKPGNIPKLLIYKASNLHTGVPSRFSGSGSGTGFTLTISSLQPEDIATYYCQQGQSYPLTFGSGTKLEIK",binds
19,"SCT-Fa104 (antibody, V domains shown, murine IgG) VH: QVQLKQSGAELVRPGTSVKLSCKASGYTLTDYYINWVKQRPGQGLEWIARIYPGNGNTYYNEKFKCKATLTAEKSSSTVNMQVTSLTSEDSAIYFCARGGSSDRIYYYAMDYWGQGTSVTVSS VL: DIQMNQSPSSLSASLGDTITITCHASQNINVWLSWYQQKPGNIPKLLIYKASNLHTGVPSRFSGSGSGTGFTLTISSLQPEDIATYYCQQGQSYPLTFGSGTKLEVK",binds
20,"SCT-Fa105 (antibody, V domains shown, murine IgG) VH: QVQLKQSGAELVRPGTSVKLSCKASGYTLTDYYINWVKQRPGQGLEWIARIYPGNGNTYYNEKFKGKATLTAEKSSNTVNMQVSSLTSEDSAVYFCARGGSSDRIYYYAMDYWGQGTSVTVSS VL: DIQMNQSPSSLSASLGDTITITCHASQNINVWLSWYQQKPGDIPKLLIYKASNLHTGVPSRFSGSGSGTGFTLTISSLQPEDIATYYCQQGQSYPLTFGSGTKLEIK",binds
21,"SCT-Fa106 (antibody, V domains shown, murine IgG) VH: QVQLKQSGAELVRPGTSVKLSCKASGYTLTDYYINWVKQRPGQGLEWIARIYPGNGNTYYNEKFKGKATLTAEKSSSTAYMQVSSLTSEDSAVYFCARGGSSVRVYYYAMDYWGQGTSVTVSS VL: DIQMNQSPSSLSASLGDTITITCHASQNINVWLSWYQQKPGNIPKLLIYKASNLHTGVTSRFSGSGSGTGFTLTISSLQPEDIATYYCQQGQSYPLTFGSGTKLEIK",binds
22,"SCT-Fa108 (antibody, V domains shown, murine IgG) VH: QVQLKQSGAELVRPGTSVKLSCKASGYTLTDYYINWVKQRPGQGLEWIARIYPGNGNTYYNEKFKGKATLTAEKSSSTVNMQVTSLTSEDSAIYFCARGGSSDRIYYYAMDYWGQGTSVTVSS VL: DIQMNQSPSSLSASLGDTITITCHASQNINVWLSWYQQKPGNIPKLLIYKASNLHTGVPSRFSGSGSGTGFTLTISSLQPEDIATYYCQQGQSYPLTFGSGTKLEVK",binds
23,"SCT-Fa109 (antibody, V domains shown, murine IgG) VH: QVQLKQSGAELVRPGTSVKLSCKASGYTLTDYYINWVKQRPGQGLEWIARIYPGNGNTYYNEKFKGKATLTAEKSSSTVNMQVTSLTSEDSAIYFCARGGSSDRIYYYAMDYWGQVTSVTVSS VL: DIQMNQSPSSLSASLGDTITITCHASQNINVWLSWYQQKPGNIPKLLIYKASNLHTGVPSRFSGSGSGTGFTLTISSLQPEDIATYYCQQGQSYPLTFGSGTKLEVK",binds
24,"SCT-Fa110 (antibody, V domains shown, murine IgG) VH: QVQLKQSGAELVRPGTSVRLSCKASGYTLTDYYINWVKQRPGQGLEWIARIYPGNGNTYYNEKFKGKATLTAEKSSSTVNMQVTSLTSEDSAVYFCARGGSSDRIYYYAMDYWGQGTSVTVSS VL: DIQMNQSPSSLSASLGDTITITCHASQNINVWLSWYQQKPGNIPKLLIYKASNLHTGVPSRFSGSGSGTGFTLTISSLQPEDIATYYCQQGQSYPLTFGSGTKLEIK",binds
25,"SCT-Fa194 (antibody, V domains shown, murine IgG) VH: QVQLRQSGAELVRPGTSVKLSCKASGYTLTDYYINWVKQRPGQGLEWIARIYPGNGNTYYNEKFKGKATLTAEKSSSTVNMQVSSLTSEDSAVYFCARGGSSDRIYYYAMDYWGQGTSVTVSS VL: DIQMNQSPSSLSASLGDTITITCHASQNINVWLSWYQQKPGNILKLLIYKASNLHTGVPSRFSGSGSGTGFTLTISSLQPEDIATYYCQQGQSYPLTFGSGTKLEIK",binds

# — patent publication US20230279105A1 (SINGLE CELL TECHNOLOGY, published 2023)
